One may read the IC50 as the concentration that inhibits the measured activity by half. High values mean weaker potency in that assay, low ones greater potency in that assay.

Substitutions are numbered along the chain they refer to.

Data on four molecules can be found in patent US8030025B2, “Antibodies directed to angiopoietin-1 and angiopoietin-2 and uses thereof” (Amgen Inc., dated 2011).

Sequences and labels used below:
B1: H6L7 (IgG2) (antibody, V domains shown)
VH: EVQLVQSGGGVVQPGRSLRLSCAASGFTFSSYGMHWVRQAPGKGLEWVSYISSSGSTIYYADSVKGRFTISRDNAKNSLYLQMNSLRAEDTAVYYCARDLLDYDIYTGYGYWGQGTLVTVSS
VL: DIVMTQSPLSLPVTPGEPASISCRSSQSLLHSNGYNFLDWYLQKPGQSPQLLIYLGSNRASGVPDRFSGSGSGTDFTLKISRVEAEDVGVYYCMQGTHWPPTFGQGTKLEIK
B2: H4L4 (IgG2) (antibody, V domains shown)
VH: B1 VH with I105L, Y106L
VL: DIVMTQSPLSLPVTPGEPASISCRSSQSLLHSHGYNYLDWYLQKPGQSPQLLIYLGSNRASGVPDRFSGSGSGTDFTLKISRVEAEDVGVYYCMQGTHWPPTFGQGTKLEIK
B3: 536 LC1 (antibody, V domains shown)
VH: B1 VH with Y106L
VL: not shown
B4: H4L11 (IgG2) (antibody, V domains shown)
VH: B1 VH with I105L, Y106L
VL: not shown

The first assay addresses Human Ang1 (human, UniProt Q15389). Description: neutralization ELISA; coated angiopoietin vs Tie2-Fc. In general terms: In an ELISA, binding on a coated surface is turned into a signal by an enzyme label.
Molecule B1 came in with an IC50 of 0.12 nM.
B2 showed an IC50 of 3.2 nM.
Still for that read-out and setting: with B3 the figure was 515 nM.
Still for that read-out and setting: the value for B4 was 17 nM.

The next assay deals with Murine Ang1 (mouse, UniProt O08538). The description is as above.
B1 returned an IC50 of 0.12 nM.
On the same count and under the same terms, the value for B2 was 3.3 nM.
Same read-out and setting: the value for B3 was 305 nM; that for B4 was 7.7 nM.

In a further assay the target is Cyno Ang1 (cynomolgus monkey, UniProt A0A2K5VW43). The description is as above.
B1 had an IC50 of 0.19 nM.
Same read-out and setting: the value for B2 was 4 nM.
The same measure, in the same setting: with B3 the figure was 531 nM.

The target of a further assay is Rabbit Ang1 (rabbit, UniProt G1SK98). The assay is described as above.
In turn, B1 showed a half-maximal inhibitory concentration (IC50) of 0.18 nM.
On the same count and under the same terms, the value for B2 was 2.8 nM.
Still for that read-out and setting: with B3 the figure was 502 nM.
Same read-out and setting: the value for B4 was 16 nM.

Another assay has as its target Cyno Ang2 (cynomolgus monkey, UniProt A0A2K5VNX6). The assay is described as above.
Molecule B1 showed an IC50 of 0.19 nM.
B2 displayed an IC50 of 0.24 nM.
B3 returned an IC50 of 0.19 nM.
For the molecule B4, the midpoint of inhibition, the IC50, lay at 0.16 nM.

Another assay deals with Murine Ang2 (mouse, UniProt O35608). The assay is described as above.
As to B1, the concentration for half-maximal inhibition (IC50) came to 0.13 nM.
Same read-out and setting: the value for B2 was 0.15 nM.
The same measure, in the same setting: with B3 the figure was 0.14 nM; with B4, 0.12 nM.

The target in the next assay is Rabbit Ang2 (rabbit, UniProt G1T9B3). The description is as above.
On to B1, for which the IC50 was 0.15 nM.
Turning to B2, the IC50 was 0.15 nM.
The same measure, in the same setting: the value for B3 was 0.2 nM; that for B4 was 0.12 nM.

The next assay has as its target Human Ang2 (human, UniProt O15123). Described as above.
As to B1, the IC50 turned out to be 0.22 nM.
The same measure, in the same setting: the value for B2 was 0.22 nM; that for B3 was 0.27 nM.
Same read-out and setting: with B4 the figure was 0.21 nM.
